Laboratory results as given in patent publication US10640563B2, “Anti-B7-H3 antibodies and antibody drug conjugates” (AbbVie Inc., priority 2016, dated 2020).

B1: chAb11-CZ (conjugate)
VH: EVKLVESGGGLVQPGGSLRLSCATSGFTFTNYYMSWVRQPPGKALEWLGFIRNKANDYTTEYSASVKGRFTISRDNSQSILYLQMNTLRAEDSATYYCARESPGNPFAYWGQGTLVTVSA
VL: DIVMTQSPSSLTVTAGEKVTMTCKSSQSLLNSGTQKNFLTWYQQKPGQPPKLLIYWASTRESGVPDRFTGSGSGTDFTLTISSVQAEDLAVYFCQNDYIYPLTFGAGTKLELK
B2: chAb2 (conjugate)
VH: QVQLQQPGAELVKPGASVKLSCKASGYTFTSYWMHWVKQRPGQGLEWIGMIHPDSGTTNYNEKFRSKATLTVDKSSSTAYMQLSSLTSEDSAVYYCAVYYGSTYWYFDVWGTGTTVTVSS
VL: DVVMTQTPLSLPVSLGDQAYISCRSSQSLVHINGNTYLHWYRQKPGQSPKLLIYKVSNRFSGVPDRFSGSGSGTDFTLKISRVEAEDLGVYFCSQSTHFPFTFGSGTKLEIK
modifications: conjugated payload not specified; Synthetic chAb2 VH amino acid sequence; Synthetic chAb2 VL amino acid sequence
B3: chAb6 (conjugate)
VH: QVQLQQSGAELMKPGASVKISCKATGYTFSRYWIEWVKQRPGHGLEWIGEILPGSGSTNYNEKFKGKATFTADTSSNTAYMQVSSLTSEDSAVHYCARRGYGYVPYALDYWGQGTSVTVSS
VL: EIQMTQTTSSLSASLGDRVTISCRASQDISNSLNWYQQKPDGTVNLLIYYTSRLYSGVPSRFSGSGSGTDYSLTISNLEQEDIATYFCQQGNTLPYTFGGGTKLEIK
B4: chAb16 (conjugate)
VH: EVKLLESGGGLVQPGGSLKLSCAASGFDFSRYWMSWVRQAPGKGLEWIGEINPDSSTINYTPSLKDKFIISRDNAKNTLYLQMSKVRSEDTALYYCARPGFGNYIYAMDYWGQGTSVTVSS
VL: DIQMTQTTSSLSASLGDRVTINCRASQDISNFLNWYQQKPDGTVKLLIYYTSRLYLGVPSRFSGSGSGTDYSLTISNLEQEDIATYFCQQGNTLPPTFGGGTKLEIK
modifications: conjugated drug; Synthetic chAb16 VH amino acid sequence; Synthetic chAb16 VL amino acid sequence
B5: chAb4-CZ (conjugate)
VH: QVQLQQPGAELVKPGASVKLSCKASGYSFTSYWMHWVKQRPGQGLEWIGMIHPNSGSNNYNEKFKSKATLTVDKSSNTAYMQLSSLTSEDSAVYYCARRLGLHFDYWGQGTTLTVSS
VL: DIVMTQSQKFMSTPVGDRVSITCKASQNVGTAVAWYQQKPGQSPKLLIYSASNRYTGVPDRFTGSGSGTDFTLTISNMQSEDLADYFCQQYSSYPYTFGGGTKLEIK
B6: huAb18v1-CZ (conjugate)
VH: EVQLVQSGAEVKKPGSSVKVSCKASGYSFTSYTIHWVRQAPGQGLEWMGYINPNSRNTDYNQKFKDRVTITADKSTSTAYMELSSLRSEDTAVYYCARYSGSTPYWYFDVWGQGTTVTVSS
VL: DIQLTQSPSFLSASVGDRVTITCRASSSVSYMNWYQQKPGKAPKLLIYATSNLASGVPSRFSGSGSGTEFTLTISSLQPEDFATYYCQQWSSNPLTFGQGTKLEIK
B7: huAb18v3-CZ (conjugate)
VH: EVQLVQSGAEVKKPGSSVKVSCKASGYSFTSYTIHWVRQAPGQGLEWIGYINPNSRNTDYNQKFKDRTTLTADRSTSTAYMELSSLRSEDTAVYYCARYSGSTPYWYFDVWGQGTTVTVSS
VL: DIQLTQSPSFLSASVGDRVTITCRASSSVSYMNWYQQKPGKSPKPWIYATSNLASGVPSRFSVSVSGTEHTLTISSLQPEDFATYYCQQWSSNPLTFGQGTKLEIK
B8: huAb18v7-CZ (conjugate)
VH: EVQLVQSGAEVKKPGSSVKVSCKASGYSFTSYTIHWVRQAPGQGLEWMGYINPNSRNTDYAQKFQGRVTLTADKSTSTAYMELSSLRSEDTAVYYCARYSGSTPYWYFDVWGQGTTVTVSS
VL: EIVLTQSPDFQSVTPKEKVTITCRASSSVSYMNWYQQKPDQSPKPWIYATSNLASGVPSRFSVSVSGTDHTLTINSLEAEDAATYYCQQWSSNPLTFGQGTKLEIK
B9: huAb18v4-CZ (conjugate)
VH: EVQLVQSGAEVKKPGSSVKVSCKASGYSFTSYTIHWVRQAPGQGLEWMGYINPNSRNTDYAQKFQGRVTLTADKSTSTAYMELSSLRSEDTAVYYCARYSGSTPYWYFDVWGQGTTVTVSS
VL: DIQLTQSPSFLSASVGDRVTITCRASSSVSYMNWYQQKPGKSPKPWIYATSNLASGVPSRFSVSVSGTEHTLTISSLQPEDFATYYCQQWSSNPLTFGQGTKLEIK
B10: huAb18v9-CZ (conjugate)
VH: EVQLVQSGAEVKKPGSSVKVSCKASGYSFTSYTIHWVRQAPGQGLEWIGYINPNSRNTDYNQKFKDRTTLTADRSTSTAYMELSSLRSEDTAVYYCARYSGSTPYWYFDVWGQGTTVTVSS
VL: EIVLTQSPDFQSVTPKEKVTITCRASSSVSYMNWYQQKPDQSPKPWIYATSNLASGVPSRFSVSVSGTDHTLTINSLEAEDAATYYCQQWSSNPLTFGQGTKLEIK
B11: huAb18v6-CZ (conjugate)
VH: EVQLVQSGAEVKKPGSSVKVSCKASGYSFTSYTIHWVRQAPGQGLEWMGYINPNSRNTDYAQKFQGRVTLTADKSTSTAYMELSSLRSEDTAVYYCARYSGSTPYWYFDVWGQGTTVTVSS
VL: EIVLTQSPDFQSVTPKEKVTITCRASSSVSYMNWYQQKPDQSPKLLIKATSNLASGVPSRFSGSGSGTDFTLTINSLEAEDAATYYCQQWSSNPLTFGQGTKLEIK
B12: huAb3v6-CZ (conjugate)
VH: EVQLVQSGAEVKKPGSSVKVSCKASGYTFSSYWMHWVRQAPGQGLEWIGLIHPDSGSTNYNEMFKNRATLTVDRSTSTAYVELSSLRSEDTAVYFCAGGGRLYFDYWGQGTTVTVSS
VL: DVVMTQSPLSLPVTPGEPASISCRSSQSLVHSNGDTYLRWYLQKPGQSPQLLIYKVSNRFSGVPDRFSGSGSGTDFTLKISRVEAEDVGVYYCSQSTHVPYTFGGGTKVEIK

Columns and labels:
[1] = system: HCC38 (breast cancer) cells; assay: In vitro cell viability assay (CellTiter-Glo), HCC38; format: cell-based, human; conditions: for IC50: ADC with synthon CZ, HCC38 breast cancer cells, viability after 5 days, read-out: Cytotoxicity (HCC38 cell line IC50nM); for cytotoxicity in cells expressing human B7-H3 (in words): antibody conjugated to synthon CZ
Procedure: (§1) Nine anti-B7-H3 chimeric antibodies were conjugated to the Bcl-xL inhibiting (Bcl-xLi) synthon CZ (Example 2.1) using conjugation Method A described below. The resulting ADCs (anti-B7-H3 antibodies conjugated to synthon CZ) were tested for binding to cell surface human B7-H3 by FACS (as described in Example 6) and for cell cytotoxicity in cell lines expressing B7-H3. […] Table 6 provides cell surface binding and cytotoxicity activity of anti-B7-H3 chimera ADCs against breast cancer cell HCC38 expressing human B7-H3.
The tumor cell lines HCC38 (breast cancer), NCI-H1650 (NSCLC) and NCI-H847 (small cell lung cancer cell line) were obtained from American Type Culture Collection (ATCC). Cells were grown in 96-well culture plates using recommended growth media overnight at a density of 5×10^3 (HCC38) or 20×10^3 (NCI-H847) or 40×10^3 (NCI-H1650) per well. The following day, treatments were added in fresh media to triplicate wells. Cellular viability was determined 5 days later using the CellTiter-Glo Luminescent Cell Viability Assay kit (Promega), as directed in the manufacturer's protocol. Cell viability was assessed as percentage of control untreated cells.

[2] = Observation after conjugation to synthon (Method A); format: physicochemical; conditions: after conjugation to Bcl-xLi synthon CZ
Procedure: as §1
A solution of Bond-Breaker™ tris(2-carboxyethyl)phosphine (TCEP) solution (10 mM, 0.017 mL) was added to a solution of antibody (10 mg/mL, 1 mL) preheated to 37° C. The reaction mixture was kept at 37° C. for 1 hour. The solution of reduced antibody was added to a solution of synthon (3.3 mM, 0.160 mL in DMSO) and gently mixed for 30 minutes. The reaction solution was loaded onto a desalting column (PD10, washed with Dulbecco's phosphate-buffered saline [DPBS] 3× before use), followed by DPBS (3 mL). The purified ADC solution was filtered through a 0.2 micron, low protein-binding 13 mm syringe-filter and stored at 4° C.

[3] = Size exclusion chromatography, % aggregate of ADC; format: physicochemical; conditions: ADC with synthon CZ, conjugation Method A
Procedure: The DAR and percentage aggregation of ADCs synthesized were determined by LC-MS and size exclusion chromatography (SEC), respectively.
Size exclusion chromatography was performed using a Shodex KW802.5 column in 0.2 M potassium phosphate pH 6.2 with 0.25 mM potassium chloride and 15% IPA at a flow rate of 0.75 ml/min. The peak area absorbance at 280 nm was determined for each of the high molecular weight and monomeric eluents by integration of the area under the curve. The % aggregate fraction of the conjugate sample was determined by dividing the peak area absorbance at 280 nm for the high molecular weight eluent by the sum of the peak area absorbances at […] of the high molecular weight and monomeric eluents multiplied by 100%.

NCI-H146 cells = assay: In vivo xenograft model of small cell lung cancer (NCI-H146); set-up: species or system mice; conditions: 6 mg/kg/IP/QDx1
HCC38 cell line = assay: Cell cytotoxicity of ADCs in HCC38 cell line; format: cell-based; conditions: CZ conjugates
Procedure: The humanization of chAb18 generated 10 variants (described above in Table 9) that retained binding to human and cyno B7-H3 as assessed by FACS (the method of which is described above in Example 6). These variants were further characterized for binding by SPR and were successfully conjugated to the Bcl-xL inhibitor synthon CZ using Method A (described above) and assessed for cell cytotoxicity as described in Example 7. The parental chAb18 from which the variants were derived was also tested as a comparator. All humanized variants had similar binding properties as assessed by biacore, and retained binding activity to cell surface expressed as conjugates with the CZ synthon. The cytotoxicity of all of the variants as CZ synthons were similar to the chAb18 from which they were derived.
Humanized chAb18 variants were conjugated to the CZ synthon and tested for cytotoxicity in HCC38 cell line.

[4] = Aggregation of conjugates by SEC; format: physicochemical
[5] = Table 10, CZ conjugates of Ab18 variants

Row | Molecule | Conjugation observation [2] | TGD (%) (NCI-H146 cells; Table 11) | TGImax (%) (NCI-H146 cells; Table 11) | IC50 (HCC38 cell line; Table 10) [nM] | % agg by SEC [4, 5] [%] | also measured
1 | B1 | Clear | – | – | – | – | IC50 [1]: 2.34 nM; % agg by SEC [3]: 5.6%
2 | B2 | precipitated | – | – | – | – | cytotoxicity in cells expressing human B7-H3 (in words) [1]: weak cytotoxicity
3 | B3 | precipitated | – | – | – | – | cytotoxicity in cells expressing human B7-H3 (in words) [1]: weak cytotoxicity
4 | B4 | precipitated | – | – | – | – | cytotoxicity in cells expressing human B7-H3 (in words) [1]: weak cytotoxicity
5 | B5 | Clear | – | – | – | – | IC50 [1]: 0.26 nM; % agg by SEC [3]: 5.7%
6 | B6 | – | 45 | 79 | 0.39 | 3.3 | –
7 | B7 | – | 39 | 81 | 0.32 | 3.6 | –
8 | B8 | – | 42 | 87 | 0.03 | 3.6 | –
9 | B9 | – | 48 | 85 | 0.29 | 5.5 | –
10 | B10 | – | 35 | 83 | 0.9 | 3.8 | –
11 | B11 | – | 45 | 86 | 0.14 | 3.5 | –
12 | B12 | – | – | – | – | – | TGD (%) (NCI-H146 cells; Table 15): 88%; TGImax (%) (NCI-H146 cells; Table 15): 91%; IC50 (HCC38 cell line; Table 14): 0.13 nM; % agg by SEC ([4]; Table 14, CZ conjugates of Ab3 variants): 4.9%
